Assay results from article PMC5909903, “Impact of selected amino acids of HP0377 (Helicobacter pylori thiol oxidoreductase) on its functioning as a CcmG (cytochrome c maturation) protein and Dsb (disulfide bond) isomerase” (PLoS ONE, 2018).

Experiments:
[1] = target: apocytochrome c (HP1227) (Helicobacter pylori) (UniProt O25825); experiment: SEC; lysates of E. coli overexpressing HP0377 CSYA and HP1227 mixed, overnight at 37°C, Ni IMAC, then ENrich SEC70 in 20 mM Tris pH 8, 150 mM NaCl; fractions on SDS-PAGE with or without DTT; covalent (disulfide) complex
[2] = target: the molecule itself; experiment: cross-linking; glutaraldehyde (0.001-0.1%) on purified truncated HP0377 at 2.5 mg/ml, SDS-PAGE

HP0377 with the CSYC motif changed to CSYA (C92A), amino acids 25-221, His6 fusion (from UniProt O25140 25-221) (enzyme)
stoichiometry N (HP0377 per apocytochrome c) [1]: 2

B1: HP0377 (Helicobacter pylori thiol oxidoreductase), amino acids 33-221 (domain or fragment, Helicobacter pylori strain 26695, UniProt O25140 33-221, looked up)
chain: LDENLLSSGSQSSKELNDERDNIDKKSYAGLEDVFSDNKSISPNDKYMLLVFGRNGCSYCERFKKDLKNVKELRDYIKEHFSAYYVNISYSKEHDFKVGDKNNEKEIKMSTEELAQIYAVQSTPTIVLSDKTGKTIYELPGYMPSTQFLAVLEFIGDGKYQDTKDDEDLTKKLKAYIKYKTNLSKSKSN
notes: HP0377 (CcmG family thiol oxidoreductase), Helicobacter pylori 26695, amino acids 33-221 of the native HP0377; the variant previously analysed by Yoon et al. [16]; also called 33-221 variant of HP0377; N-terminal-shortened HP0377; source: E. coli, purified
stoichiometry N [2]: 2

B2: HP0377 (Helicobacter pylori thiol oxidoreductase), amino acids 25-187 (domain or fragment, Helicobacter pylori strain 26695, UniProt O25140 25-187, looked up)
chain: CKSNNKDKLDENLLSSGSQSSKELNDERDNIDKKSYAGLEDVFSDNKSISPNDKYMLLVFGRNGCSYCERFKKDLKNVKELRDYIKEHFSAYYVNISYSKEHDFKVGDKNNEKEIKMSTEELAQIYAVQSTPTIVLSDKTGKTIYELPGYMPSTQFLAVLEFI
notes: HP0377 (CcmG family thiol oxidoreductase), Helicobacter pylori 26695, amino acids 25-187 of the native HP0377; also called 25-187 variant of HP0377; C-terminal-truncated HP0377; source: E. coli, purified
stoichiometry N [2]: 2
